The nanobody polyreactivity screen of Harvey et al. (2022)

Assay: yeast display, Sf9 membrane polyspecificity reagent, FACS + sequencing; frameworks hold sequencing errors
In short: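 After 36–48 hours of galactose induction, yeast (Saccharomyces cerevisiae BJ5465) displaying a synthetic nanobody library were stained at 4 °C for 1 hour with 10% biotinylated, detergent-solubilized Sf9 membrane reagent. Streptavidin microbeads enriched the stained cells before FACS sorting into low and high (top ~1%) gates on anti-HA and streptavidin fluorescence. Each clone's polyreactivity label reflects its gate of origin.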

| Sequence | polyreactivity (PSR sort gate) |
| --- | --- |
| QVQLVESGGGLVQAGGSLRLSCADTGLILVLNAMGCYRQAPGKERELVADITSGGSTYYADSVKGRFTISRDNAKNSVYLQMNSLKPEDTAVYYCATDQGGYYENDYWGQGTKVTVSS | low polyreactivity |
| QVQLVESGGGLVQAGGSLRLSCAESGLILAGYTMGWYRQAPGKESELVAAISDRGGSTYYADSVKGRFTISRDNAKNTVYLQMNSLKPEDTAVYYCNAFVYSYALTPSYAGDYWGQGTQVTVSS | low polyreactivity |
| QVQLVESGGGLVQAGGSLRLSCAGSGFIFAQNTMGWYRQAPGKERELVAAITRRGGSTYYADSVKGRFTISRDNAKTTVYLQMNSLKPEDTAVYYCARATVGAWRKMYSWGQGTQVTVSS | high polyreactivity |
| QVQLVESGGGLVQAGGSLRLSCAGSGGIFGSNAMGWYREAPGKERALVAAISWRGGSTYYADSVKGRFTISRDNAKNSVYLQMNSLKPEDTAGYYCAARYRWGYSTSYSYRFHYWGQGTQVTVSS | high polyreactivity |
| QVQLVESGGGLVQAGGSLRLSCAGSGGPFLDYIGWYRQAPGKEMVLVAAITFSGGSTYYADSVKGRLTISRENAKNTVYVQMNSLKPDDTAVYFCAAGWYDWPKYLLGGYTYYLYDSWRQGTQVTVSS | low polyreactivity |
| QVQLVESGGGLVQAGGSLRLSCAGSGSTFHPYAMGWYRQAPGKVRELVAAITWGGGSTYYADSVKGRITISRDNAKNTVYLQMNSLKPEDTAVYYCNAYTLYWPDYDYWGQGTQVTVSS | low polyreactivity |
| QVQLVESGGGLVQAGGSLRLSCAGSGSTFLYYAMGWYRQAPGKERELVAVITYSDGGTYYADSVKGRFTISRDNAKNTVYLEMNSLKPEDTAVYYCAKDYRAYAGHYTWTWHEYGYWGQGTQVTVSS | low polyreactivity |
| QVQLVESGGGLVQAGGSLRLSCAGSGSTSYNDMGWYRQAPGKEREMGASITSSGDDTYYADSVKGRFTISRDNAKNTVYLQMNSLKPEDTAVYYCAAEDYHRHVGSDFVIDYDYWGQGTQVTVSS | low polyreactivity |
| QVQLVESGGGLVQAGGSLRLSCAGSGYIFAYNTIGWYRQAPGKERELVAAISRSGGSTYYPDSVKGRFTISRDNAKNTVYLQMNSLKPEDTAVYYCAARYSGYRVGQRSFCYWGQGTQVTVSS | high polyreactivity |
| QVQLVESGGGLVQAGGSLRLSCAHSGSSFYRYSMRWYIQAPGKERELDAAISTSGGRTYYADSVKGRFSISRDNAKNTVYLQMNSLKPEDTAVYYCAADQYRYYRSTYDYWGQGTQVTVSS | high polyreactivity |
| QVQLVESGGGLVQAGGSLRLSCAPSGFIFQANAMGWYRQAPGKERELLAAIDDGDSTYADSVKGRFTISRDNAKNTVYLQLNSLKPEDTAVYFCATRRNRSYDYWGQGTQVTVSS | low polyreactivity |
| QVQLVESGGGLVQAGGSLRLSCAPSGFIYHWNAMGWYRQAPGKERELLAAITWRGTNTYYADSVKGRFTISRDNAKNTVYLQMNRLKPEDTAVYYCAARYVTYYGTFDYWGLGTQVTVSS | low polyreactivity |
| QVQLVESGGGLVQAGGSLRLSCAPSGFTFGLYAMGWYRQAPGKERELVAAISWSGGRTYYADSVKGRFTISRDNAKNTVYLQMNSLKPEDTAVYYCAAVNKARSEDYGYWGQGTQVTVSS | high polyreactivity |
| QVQLVESGGGLVQAGGSLRLSCAPSGFTFGSNAMGWYRQAPGKERELVAAITWRGGSTYYADSVKGRFTISRDNAKNTVYLQMNSLKPEDTAVYYCAAVRSASSWQYIWLKYYYWGQGTQVTVSS | high polyreactivity |
| QVQLVESGGGLVQAGGSLRLSCAPSGFTFLWYAMGWYRQAPGKERELVAGISSDGSTNADSVKGRFTISRDNAKNTVYLQMNSLKPEDTAVYYCDADYSSPWQAVQGDDYWGQGTQVNVSS | low polyreactivity |
| QVQLVESGGGLVQAGGSLRLSCAPSGFTFRYYAMAWYRQAPGKEREFVAAISWSGGSTYYADSVKGRFTISRDNAKNTVYLQMNSLKPEDTAVYYCAAYYPLWGWGYDYWGQGTQVTVSS | high polyreactivity |

| Sequence | polyreactivity (PSR sort gate) |
| --- | --- |
| QVQLVESGGGLVQAGGSLRLSCAPSGFTFSRYAMGWYRQAPGKERELVAAITRGGGNTYYADSVKGRFTISRDNAKNTVYLQMNSLKPEDTAVYYCNAQVGNFGYRSGGYDYWGQGTQVTVSS | high polyreactivity |
| QVQLVESGGGLVQAGGSLRLSCAPSGFTIGYYAMGWYRQAPGKEMELVAGISFSGTSTYYADSVKGRFTFSRDNAKNTVYLLMNSLKPEDTAVYYCNKVYYSAASKHKEYWGQGTQVTVSS | high polyreactivity |
| QVQLVESGGGLVQAGGSLRLSCAPSGFTSWQYAMGWYRPAPGKERELVAAISVSGASTYYADSVKGRFTISRDNAKNTVYLQMNSLKPEDTAVYYCAAAYVRYPTTRYFYWGQGTQVTVSS | high polyreactivity |
| QVQLVESGGGLVQAGGSLRLSCAPSGGTFWIYAMGWYRQAPGKERELVAGITTSGATTYYADSVKGRFTISRDNAKNTVYLQMNSLKPEDTAVYYCAAVIRPRYYQVRPRYDYWGQGTQVTVSS | low polyreactivity |
| QVQLVESGGGLVQAGGSLRLSCAPSGGTYIYAIGWYRQAPGKERDLVAVITSRSGSTYYADSVKGRFTISRDNAKNTVYLQMISLKPEDTAVYYCAAYTRVRTDPGTSFGYWGQCTQVTVSS | high polyreactivity |
| QVQLVESGGGLVQAGGSLRLSCAPSGIIFKGYAMGWSRQAPGKERELVAAISHNADSTYADSVKGRFTISRDNAKNTVYLQMNSLKPEDTAVYYCNADYLYHQTSRGKYYSWGQGTQVTVSS | low polyreactivity |
| QVQLVESGGGLVQAGGSLRLSCAPSGITFFWKAKGWYRQAPGKERELVAAISSGAGTTYADSVKGRFTISRDNAKNTVYLQMNSLKPEDTAVYFCAARRYRYAYGPYNYWGQGSQVTVSS | low polyreactivity |
| QVQLVESGGGLVQAGGSLRLSCAPSGITFSHYAMGWYRQAPGKERELVAGITWSGGRTYYADSVKGRFTISRDNAKNTVYLQMNSLKPEDTAVYYCAPIHRTGYDMDYWGLGTQVTVSS | low polyreactivity |
| QVQLVESGGGLVQAGGSLRLSCAPSGITFTHYVMGWYRQAAGKERELVAAITSGGRTNYADSVKGRFTISRDNAKNTVYLQMNSLIPEDTAVYYCNAVKRVGDYWGRSFDYDYWGQGTKVTVSS | high polyreactivity |
| QVQLVESGGGLVQAGGSLRLSCAPSGRIFSFNTMVLYRHAPGTEREFVATIRYSGGSTYADSVKGRFTISRDNAKNTVYLQMNSLKPEDTAVYYCAAAWWSYKFNRDFDYWGQGTQVTVSS | low polyreactivity |
| QVQLVESGGGLVQAGGSLRLSCAPSGRIFSYFAMGWYRQAPGKERELVAAISGNGGSTYYADSVKGRFTISRDNAKNTVYLQMNSLKPEDTAVYYCAADWWSSDWAYLYPYSYDYWGQGTQVTVSS | low polyreactivity |
| QVQLVESGGGLVQAGGSLRLSCAPSGRIFTEYVMGWYRQAPGKERELVAAAITRGGSTNYADSVKGRFTISRDNAKNTVYLQMISLKPEDTAVYYFNKDDWPFSRQLYTGKYDSWGQGTQVTVSS | low polyreactivity |
| QVQLVESGGGLVQAGGSLRLSCAPSGRIFTGYAMGWYRPEPGQEWELVAASTSSGGSTYYADSVKGRVTISRDYAKNTVYLQMNSLKPEDTAVYYCNKVGRPRYNYWGQGTEVTVSS | high polyreactivity |
| QVQLVESGGGLVQAGGSLRLSCAPSGRIIFYNAMGWYRQAPGKERELVAAISIGGRTYYADSVKGRFTISRDNAKNTVYLQMNSLKPEDTAVYYCAALGYPYLRSGYWGQGTQVTVSS | high polyreactivity |
| QVQLVESGGGLVQAGGSLRLSCAPSGRIILRYTMGRYRQARGKERQLVAAISARTTGTYYADSVKGRFTISRDNAKNTFYLQLNSLKPEDTAVYYCAAKCKLSRVLYSWGQGTQVTVSS | low polyreactivity |
